Assay results: publication PMC9059122

Experiments:
[1] = biological target: human melanocortin-1 receptor (human) (UniProt Q01726)
[2] = biological target: human melanocortin-3 receptor (human) (UniProt P41968)
[3] = biological target: human melanocortin-5 receptor (human) (UniProt P33032)
human melanocortin-5 receptor (human), sequence (P33032 whole entry): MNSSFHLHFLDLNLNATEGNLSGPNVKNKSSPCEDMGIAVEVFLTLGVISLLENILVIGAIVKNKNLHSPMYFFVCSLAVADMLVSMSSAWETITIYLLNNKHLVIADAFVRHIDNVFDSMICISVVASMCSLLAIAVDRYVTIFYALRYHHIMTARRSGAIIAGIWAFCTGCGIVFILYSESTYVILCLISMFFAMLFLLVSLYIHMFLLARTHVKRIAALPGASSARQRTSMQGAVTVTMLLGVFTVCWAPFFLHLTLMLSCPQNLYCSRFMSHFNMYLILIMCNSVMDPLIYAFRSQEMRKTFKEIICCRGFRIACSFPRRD

human melanocortin-1 receptor (human), sequence (Q01726 whole entry): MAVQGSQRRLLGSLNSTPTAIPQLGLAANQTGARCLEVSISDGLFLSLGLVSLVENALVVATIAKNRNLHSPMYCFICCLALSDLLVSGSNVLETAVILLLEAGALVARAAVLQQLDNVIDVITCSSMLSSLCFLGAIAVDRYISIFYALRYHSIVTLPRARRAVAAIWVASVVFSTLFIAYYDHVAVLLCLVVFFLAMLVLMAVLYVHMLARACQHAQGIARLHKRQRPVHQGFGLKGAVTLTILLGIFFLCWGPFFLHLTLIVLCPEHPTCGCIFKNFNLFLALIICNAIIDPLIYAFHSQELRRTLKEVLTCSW
human melanocortin-3 receptor (human), sequence (P41968 whole entry): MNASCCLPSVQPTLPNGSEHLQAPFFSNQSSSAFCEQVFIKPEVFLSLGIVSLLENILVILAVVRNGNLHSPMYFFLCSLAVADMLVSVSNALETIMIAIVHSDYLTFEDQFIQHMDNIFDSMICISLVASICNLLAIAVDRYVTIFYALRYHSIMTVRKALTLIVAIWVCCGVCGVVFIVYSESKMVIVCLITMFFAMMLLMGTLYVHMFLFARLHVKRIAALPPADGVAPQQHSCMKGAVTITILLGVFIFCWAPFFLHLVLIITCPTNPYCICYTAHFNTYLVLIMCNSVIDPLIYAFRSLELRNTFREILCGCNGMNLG

agonist potency (EC50), cAMP split-luciferase sensor dynamic assay [1]	agonist potency (EC50), cAMP split-luciferase sensor dynamic assay [2]	agonist potency (EC50), cAMP split-luciferase sensor dynamic assay [3]	Substance
0.16 nM	6.2 nM	3.8 nM	analogue 11 (Tyr-Val-Nle-Gly-His-D-Nal(2′)-Arg-Trp-Asp-Arg-Phe-Gly-NH2) (peptide)
1.2 nM		4.1 nM	analogue 13 (Tyr-Val-Nle-Gly-Pro-D-Nal(2′)-Arg-Trp-Asp-Arg-Phe-Gly-NH2) (peptide)
